Data published in the RNAGym collection of RNA variant scans (doi:10.1073/pnas.2313332121).
Fewer inactive variants are shown than the library holds.

B1: TPR 5TU (parent)
chain: GGAUCUUCUCGAUCUAACAAAAAAGACAAAUCUGCCACAAAGCUUGAGAGCAUCUUCGGAUGCAGAGGCGGCAGCCUUCGGUGGCGCGAUAGCGCCAACGUUCUCAACUAUGACACGCAAAACGCGUGCUCCGUUGAAUGGAGUUUAUCAUG

Variants of: B1
Experiment: polymerase ribozyme fitness, log enrichment relative to wild type (log ratio); higher = more active; in vitro selection for triplet polymerase activity
How it was run: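 Each subunit of a heterodimeric triplet polymerase ribozyme was represented by a PCR-built, transcribed mutant library that underwent triplicate single-round in vitro selection with frozen incubation at −7 °C. Extended constructs were recovered by gel excision, streptavidin-bead capture and RT-PCR, and Illumina sequencing of input and output libraries kept genotypes with ≥10 input reads and ≥1 read per output. Fitness is the logarithm of genotype enrichment relative to wild-type enrichment, from inverse-variance-weighted replicate averages, with a logarithm base of 2.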

Row | Variant | polymerase ribozyme fitness (log ratio)
1 | U6A A41C G50C G84A A119G | -3.27
2 | U6G A23G U144G | -3.95
3 | C5U A30G A52U C76G G94A C118U U148A | ≤ -4.2
4 | U6C A26C A28G | -3.84
5 | U6C C96G C105U | -0.764
6 | U6A A17U G65A G83A G84U C87A G100A G141A | ≤ -4.2
7 | U6C G83A C114U | -2.57
8 | U6A G50A A89U G92U A137G | -3.34
9 | C5G U55G C79G C85U U130G | ≤ -4.2
10 | U6A C57G C96U G141C | -0.945
11 | U6A U13A C35G A110G A142G | -3.55
12 | C5G U7A C93U A106C | -3.03
13 | U6A C18U A20C A22C U44C U55A C87A | ≤ -4.2
14 | C5U C96A | 0.48
15 | C5U C18U C76G C105U U148A | ≤ -4.2
16 | C5U A22C G83C C93U U101G C116A | -2.06
17 | C5G U6G U7G C14G A28C A30C G50C C51G A89G C93G G94U C105U C116U G143U | ≤ -4.2
18 | C5U A12C A40C U61A C95U | -2.18
19 | U6C G70A C76G C87A G88A C116A | ≤ -4.2
20 | U6C U31C A52U G58A C95G U145A | -2.9
21 | U6G A16U C18U G67C G88C | ≤ -4.2

Row | Variant | polymerase ribozyme fitness (log ratio)
22 | U6G A37G C38G C95U C116U G136U U139A U146C | ≤ -4.2
23 | U6G A16G A29U C54U G86A U102G | ≤ -4.2
24 | C5U A52U A64C G70C C85A C116G A122U C125U A150G | ≤ -4.2
25 | C5U U9G A12C U33G G58A G88A A91G G94A A113C A121C | ≤ -4.2
26 | U6G A17U A21U A49C C51U C79U G84A C114G | ≤ -4.2
27 | U6G A20U C43U A47U G59A G65C A73C G88U C96A A142G | ≤ -4.2
28 | U6A A29U G81A G92C C114U | ≤ -4.2
29 | U6A A91C | ≤ -4.2
30 | C5U A73G C85G | -0.907
31 | U6G A21C C75U U144A | -0.201
32 | C5U C38U C85G U101C | -1.38
33 | U6A C96U | -0.0433
34 | U6A A19C U56A G83A G124C | -1.45
35 | U6G A24U C79A G84U C85U G117U G141A | ≤ -4.2
36 | C5G U15A U45G U82C G92A A150U | ≤ -4.2
37 | U6C A23G U61A | ≤ -4.2
38 | U6A C14G G34A C87U C105U U145G | -4.05
39 | U6A A28G A73G C93G C99A C131A | -4.19
40 | C5U U82A C103G A113U A137C U148A | ≤ -4.2
41 | U6A C54A C93G | ≤ -4.2
42 | U6A A28G G59A C93U C99G C108A G140A G141U | ≤ -4.2

Row | Variant | polymerase ribozyme fitness (log ratio)
43 | U6A A47C G59U G81A C95G G141C | ≤ -4.2
44 | U6G A120C G136C | -3.69
45 | U6A G83C | -0.841
46 | U6G A21C G152A | -2.84
47 | U6G A37G U53A G80U U90C C149A | ≤ -4.2
48 | U6A A20C U31C C96A U127C | -1.86
49 | U6A A60G C76A U144C | -0.452
50 | C5U A91U | -3.99
51 | U6A C14U U82C G86A | -4.09
52 | U6C C14U C38U U61A U145C | -4.04
53 | U6C C85G | -2.95
54 | U6A A28C U44A U45A A49U C85G U144A | ≤ -4.2
55 | C5G G141C | -0.606
56 | C5U C38G A66U G94C | ≤ -4.2
57 | U6C C10A U13A C35G C36G A37G G81U G83C | ≤ -4.2
58 | C5G U77A G94U G140C G152A | ≤ -4.2
59 | C5U C93U | 0.375
60 | C5U C93G | -3.16
61 | C5U A20U C57U G68A C72U G92A | ≤ -4.2
62 | U6A A37U G124A G126C | -2.83
63 | U6C G124C C129A | -4.16

Row | Variant | polymerase ribozyme fitness (log ratio)
64 | U6A U15G A16U G74A U82G C95U | ≤ -4.2
65 | U6G C8G C18U C54U C131U | -3.56
66 | C5G U90G C93A C116G A142C | ≤ -4.2
67 | U6C C35U G59A A66C G84U C93U A98U G100A A106C A142C | ≤ -4.2
68 | U6A C93U | -1.6
69 | U6A C93G | -3.92
70 | C5U A22U C85A U135A | -0.0168
71 | C5G U13A | -1.14
72 | U6C A66C C72A U77C U82A U111C G126A | ≤ -4.2
73 | U6A A60C A142G | -3.03
74 | U6A C10A U31A A49C U53A C76G G81A G92A A106G G117A | ≤ -4.2
75 | U6G C8G | -3.65
76 | C5U A16C A17U C27U A49C U55G | ≤ -4.2
77 | U6A U53A G86A A91C G128C | ≤ -4.2
78 | U6A G50C A52C | ≤ -4.2
79 | U6A A21U C76A G86U | -2.79
80 | U6A A39U U101G C118G | ≤ -4.2
81 | U6A A16C A20G G62C A91U A110U | ≤ -4.2
82 | C5U A17G A49G U53G C85A A122C G141C | ≤ -4.2
83 | U6A C14U A41U G48U | -3.87
